The values below come from patent US20220195043A1 (BEIJING MABWORKS BIOTECH, published 2022).

Changes are numbered by the printed parent chain. Names and notes keep the numbering of the source.

Test [1] has as its target T1, human CD3ε-his (Cat #:10977-H08s, SinoBiological, China) (human, UniProt P07766 23-126).
T1 construct: Bought protein; also called human CD3ε protein; recombinant human CD3ε; not shown: his tag
Nature of the test: ELISA: plate coated with human CD3ε-his, antibody titrated, HRP goat anti-human IgG, OD450. (In general: In an ELISA, binding on a coated surface is turned into a signal by an enzyme label.)

Test [2] has as its target T2, monkey CD3ε-his (Cat #: 90047-C08H, SinoBiological, China) (monkey, UniProt Q95LI5 22-117).
T2 construct: Bought protein; also called monkey CD3ε protein; recombinant monkey CD3ε
T2 sequence: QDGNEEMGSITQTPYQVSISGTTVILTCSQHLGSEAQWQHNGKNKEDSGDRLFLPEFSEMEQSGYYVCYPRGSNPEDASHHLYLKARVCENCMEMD
The experiment in a line: ELISA: plate coated with monkey CD3ε-his, antibody titrated, HRP goat anti-human IgG, OD450.

Test [3] concerns the target T1, human CD3ε-his (Cat #:10977-H08s, …). Nature of the test: ELISA: plate coated with human CD3ε-his, antibody titrated, HRP goat anti-human IgG, OD 450.
For test [4], the target named is T2, monkey CD3ε-his (Cat #: 90047-C08H, …). The experiment in a line: ELISA: plate coated with monkey CD3ε-his, antibody titrated, HRP goat anti-human IgG, OD 450.
Test [5] addresses T3, human TCR/CD3 complex on cell surfaces (primary human CD4+ T cells; Jurkat cells; human PBMCs) (human, UniProt P07766 23-207).
T3 construct: whole, on cells; Native complex on cells; the γ, δ, ζ and TCR chains of the complex are present on the cells too; also called human CD3 complexes on cell surfaces; human CD3+ T cells
The experiment in a line: FACS on Jurkat cells, PE goat anti-human IgG, MFI.

Test [6] deals with T4, human CD64 (HEK293A/human CD64 cells) (human, UniProt P12314 16-374).
T4 construct: Stably expressed on HEK293A cells; also called FcγRI
T4 sequence (P12314 16-374 limits assumed): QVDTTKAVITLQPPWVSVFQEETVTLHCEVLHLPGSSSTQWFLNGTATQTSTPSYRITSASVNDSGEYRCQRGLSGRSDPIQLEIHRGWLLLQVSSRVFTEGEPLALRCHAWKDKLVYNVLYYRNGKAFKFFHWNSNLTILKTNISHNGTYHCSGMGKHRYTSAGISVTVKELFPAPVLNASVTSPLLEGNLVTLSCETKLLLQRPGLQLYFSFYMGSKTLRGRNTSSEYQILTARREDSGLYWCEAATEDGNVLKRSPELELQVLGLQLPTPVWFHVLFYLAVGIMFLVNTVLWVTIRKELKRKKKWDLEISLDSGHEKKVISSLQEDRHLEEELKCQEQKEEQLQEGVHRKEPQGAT
Nature of the test: FACS on HEK293A/human CD64 cells, PE F(ab')2 goat anti-human IgG Fc, MFI; bars at 40, 8, 1.6, 0.32 and 0.064 µg/mL.

The target in test [7] is T5, human CD16A (HEK293A/human CD16A cells) (human, UniProt P08637 17-254).
T5 construct: Stably expressed on HEK293A cells; also called FcγRIIIA
T5 sequence (P08637 17-254 F176V limits assumed): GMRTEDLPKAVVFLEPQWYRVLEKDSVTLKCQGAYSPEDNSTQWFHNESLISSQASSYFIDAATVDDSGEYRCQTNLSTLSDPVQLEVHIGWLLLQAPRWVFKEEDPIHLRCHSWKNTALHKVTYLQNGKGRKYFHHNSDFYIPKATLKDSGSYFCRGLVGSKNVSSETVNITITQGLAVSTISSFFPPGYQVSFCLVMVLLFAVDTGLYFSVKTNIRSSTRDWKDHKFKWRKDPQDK
Nature of the test: FACS on HEK293A/human CD16A cells, PE F(ab')2 goat anti-human IgG Fc, MFI; bars at 40, 8, 1.6, 0.32 and 0.064 µg/mL.

Test [8] addresses T6, human CD32A (HEK293A/human CD32A cells) (human, UniProt P12318 34-317).
T6 construct: Stably expressed on HEK293A cells; also called FcγRIIA
T6 sequence: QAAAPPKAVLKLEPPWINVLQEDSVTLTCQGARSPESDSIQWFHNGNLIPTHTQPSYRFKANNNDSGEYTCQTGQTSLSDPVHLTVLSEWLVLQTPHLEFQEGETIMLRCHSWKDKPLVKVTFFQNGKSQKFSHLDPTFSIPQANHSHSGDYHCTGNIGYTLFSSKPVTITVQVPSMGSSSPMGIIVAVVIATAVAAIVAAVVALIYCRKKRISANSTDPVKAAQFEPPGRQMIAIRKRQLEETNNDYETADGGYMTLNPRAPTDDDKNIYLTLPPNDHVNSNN
Nature of the test: FACS on HEK293A/human CD32A cells, PE F(ab')2 goat anti-human IgG Fc, MFI; bars at 40, 8, 1.6, 0.32 and 0.064 µg/mL.

The target in test [9] is T7, human CD32B (HEK293A/human CD32B cells) (human, UniProt P31994 43-310).
T7 construct: Stably expressed on HEK293A cells; also called FcγRIIB
T7 sequence: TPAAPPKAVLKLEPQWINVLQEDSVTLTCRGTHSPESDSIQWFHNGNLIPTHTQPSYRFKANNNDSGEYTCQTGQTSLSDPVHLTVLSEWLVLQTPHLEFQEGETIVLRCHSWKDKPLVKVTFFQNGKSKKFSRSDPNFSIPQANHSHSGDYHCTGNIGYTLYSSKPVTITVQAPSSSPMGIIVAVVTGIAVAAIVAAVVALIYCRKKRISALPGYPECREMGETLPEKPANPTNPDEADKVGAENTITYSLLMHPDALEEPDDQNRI
The experiment in a line: FACS on HEK293A/human CD32B cells, PE F(ab')2 goat anti-human IgG Fc, MFI; bars at 40, 8, 1.6, 0.32 and 0.064 µg/mL.

The target of test [10] is T3, human TCR/CD3 complex on cell surfaces …. The experiment in a line: FACS on primary human T cells, PE goat anti-human IgG, MFI.

T3 sequence (P07766 23-207, one chain of several): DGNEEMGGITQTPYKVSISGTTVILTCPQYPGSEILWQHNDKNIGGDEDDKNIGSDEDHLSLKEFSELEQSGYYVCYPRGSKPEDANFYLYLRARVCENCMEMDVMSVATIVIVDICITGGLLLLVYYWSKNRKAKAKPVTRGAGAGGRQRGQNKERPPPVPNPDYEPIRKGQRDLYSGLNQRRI
T1 sequence (P07766 23-126 limits assumed): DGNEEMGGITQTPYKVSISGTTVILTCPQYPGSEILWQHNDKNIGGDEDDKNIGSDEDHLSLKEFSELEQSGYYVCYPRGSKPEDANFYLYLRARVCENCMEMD

B1: humanized anti-CD3 antibody 15H2L3 (human IgG1) (antibody, V domains shown)
VH: EVQLLESGGGLVQPGGSLRLSCAASGFTFNTYAMNWVRQAPGKGLEWVARIRSKYNNYATYYAISVKDRFTISRDNSKNTLYLQMNSLRAEDTAVYYCVKHGNFGNSYLSYWAYWGQGTLVTVSS
VL: QAVVTQEPSLTVSPGGTVTLTCQSSTGAVTTNNYANWVQQKPGHAFRGLIGGTKQRAPGVPARFSGSLLGGKAALTLSGVQPEDEAEYYCVLWYSNLWVFGGGTKLTVLG
Turning to B1, the “EC50 (read off the curve)” value in [1] is roughly 80 µg/mL; in test [2] it was roughly 90 µg/mL.

B2: humanized anti-CD3 antibody 26H3L3 (human IgG1) (antibody, V domains shown)
VH: B1 VH with I64D, N76D, V95M, K100R, L109I, Y111W
VL: B1 VL with Q23K, N32S, K54N, Q55L, R56H, V91A
Consider B2, for which the “EC50 (read off the curve)” value in test [3] was roughly 0.08 µg/mL; in test [4], roughly 0.1 µg/mL.

B3: 15H3L3-WT (15H3L3 with wild-typed IgG1 constant region and λ constant region SEQ ID NO: 32) (antibody)
heavy: not shown
light: QAVVTQEPSLTVSPGGTVTLTCQSSTGAVTTNNYANWVQQKPGHAFRGLIGGTKQRAPGVPARFSGSLLGGKAALTLSGVQPEDEAEYYCVLWYSNLWVFGGGTKLTVLGQPKAAPSVTLFPPSSEELQANKATLVCLISDFYPGAVTVAWKADSSPVKAGVETTTPSKQSNNKYAASSYLSLTPEQWKSHRSYSCQVTHEGSTVEKTVAPT
notes: also called 15H3L3 antibody with wild-typed Fc region
B3: in test [5], the half-maximal effective concentration (EC50 (read off the curve)) is roughly 0.1 µg/mL. The binding result in [6], in [7], in test [8] and in test [9] was “binds” each time.

B4: 15H3L3-LLP (15H3L3 with IgG1 constant region L234A/L235A/P329G) (antibody)
heavy: EVQLLESGGGLVQPGGSLRLSCAASGFTFNTYAMNWVRQAPGKGLEWVARIRSKYNNYATYYAISVKDRFTISRDDSKNTLYLQMNSLRAEDTAMYYCVRHGNFGNSYLSYWAYWGQGTLVTVSSASTKGPSVFPLAPSSKSTSGGTAALGCLVKDYFPEPVTVSWNSGALTSGVHTFPAVLQSSGLYSLSSVVTVPSSSLGTQTYICNVNHKPSNTKVDKKVEPKSCDKTHTCPPCPAPEAAGGPSVFLFPPKPKDTLMISRTPEVTCVVVDVSHEDPEVKFNWYVDGVEVHNAKTKPREEQYNSTYRVVSVLTVLHQDWLNGKEYKCKVSNKALGAPIEKTISKAKGQPREPQVYTLPPSREEMTKNQVSLTCLVKGFYPSDIAVEWESNGQPENNYKTTPPVLDSDGSFFLYSKLTVDKSRWQQGNVFSCSVMHEALHNHYTQKSLSLSPGK
light: B3 light
Regarding B4, in test [5], the “EC50 (read off the curve)” value is roughly 0.09 µg/mL. The binding result in [6] and in test [7] was “no binding (tested: 40 µg/mL)” each time.

B5: 15H3L3-LL (15H3L3 with IgG1 constant region L234A/L235A) (antibody)
heavy: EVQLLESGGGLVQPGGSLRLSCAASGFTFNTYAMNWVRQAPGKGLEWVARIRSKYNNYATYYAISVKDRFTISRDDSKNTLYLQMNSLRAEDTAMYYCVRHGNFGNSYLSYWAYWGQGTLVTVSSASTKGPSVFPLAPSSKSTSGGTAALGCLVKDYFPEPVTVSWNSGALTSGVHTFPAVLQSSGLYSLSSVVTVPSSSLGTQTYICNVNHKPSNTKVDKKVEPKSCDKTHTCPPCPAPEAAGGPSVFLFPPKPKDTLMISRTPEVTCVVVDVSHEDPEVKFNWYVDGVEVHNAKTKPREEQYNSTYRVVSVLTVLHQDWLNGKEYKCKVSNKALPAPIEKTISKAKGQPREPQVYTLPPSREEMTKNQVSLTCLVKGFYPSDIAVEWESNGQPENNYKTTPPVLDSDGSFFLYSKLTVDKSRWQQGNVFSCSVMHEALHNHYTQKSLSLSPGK
light: B3 light
B5: the “EC50 (read off the curve)” value in test [5] was roughly 0.09 µg/mL. Moreover, the binding result was “binds” in test [6], “no binding (tested: 40 µg/mL)” in test [7], “binds” in test [8] and “binds” in test [9].

B6: 15H3L3-LLN (15H3L3 with IgG1 constant region L234A/L235A/N297A) (antibody)
heavy: B4 heavy with N305A, G337P
light: B3 light
Consider B6, for which, in [5], the “EC50 (read off the curve)” value was roughly 0.09 µg/mL. Moreover, the binding result in [6], in [7] and in [8] was “no binding (tested: 40 µg/mL)” in each case.

B7: 15H3L3-LLNP (15H3L3 with IgG1 constant region L234A/L235A/N297A/P329G) (antibody)
heavy: B4 heavy with N305A
light: B3 light
notes: also called 15H3L3-LLPN
For B7, in test [5], the “EC50 (read off the curve)” value is roughly 0.09 µg/mL. Besides, the binding result in [6], in [7], in test [8] and in test [9] was “no binding (tested: 40 µg/mL)” each time.

B8: chimeric antibody 19-37 (full length, human IgG1) (antibody, V domains shown)
VH: EVKLLESGGGLVQPKGSLKLSCAASGFTFNTYAMNWVRQAPGKGLEWVARIRSKYNNYATYYAISVKDRFTISRDDSQSILYLQMNNLKTEDTAMYYCVRHGNFGNSYISYWAYWGQGTLVTVSA
VL: QAVVTQESALTTSPGETVTLTCRSSTGAVTTNNYANWVQEKPDHLFTGLIGGTRLSAPGVPARFSGSLIGDKAALTITGAQTEDEAIYFCVLWYSNLWVFGGGTKLTVLG
With B8, the “EC50 (read off the curve)” value in test [10] is roughly 100 µg/mL.

Usually EC50 (read off the curve) stands for the concentration that produces a half-maximal response.
